Residue numbers refer to the chain shown, from its start. Names may count otherwise. Each block holds one binder with its values, some of them ahead of it.
Biological target: T1, recombinant human CEACAM-1 (R&D Systems cat. no. 2244-CM-050) (human, UniProt P13688 35-428)
T1 construct: Coated on the ELISA plate at 0.5 ug/ml
T1 sequence (looked up): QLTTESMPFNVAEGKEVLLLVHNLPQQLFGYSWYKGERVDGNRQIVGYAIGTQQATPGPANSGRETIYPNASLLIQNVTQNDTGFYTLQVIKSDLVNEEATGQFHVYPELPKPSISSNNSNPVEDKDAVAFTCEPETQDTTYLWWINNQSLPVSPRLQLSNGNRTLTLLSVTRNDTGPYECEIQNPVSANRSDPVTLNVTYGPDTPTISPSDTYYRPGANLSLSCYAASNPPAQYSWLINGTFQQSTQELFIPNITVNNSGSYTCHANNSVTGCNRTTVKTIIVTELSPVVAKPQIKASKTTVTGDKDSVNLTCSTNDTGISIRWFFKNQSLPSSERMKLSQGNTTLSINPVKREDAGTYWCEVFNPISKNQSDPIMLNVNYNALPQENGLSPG
Assay: competition ELISA on coated recombinant human CEACAM-1; competitor biotinylated chimeric CM-10 IgG1
Excerpt: The binding of the biotinylated antibody was detected with streptavidin-HRP (Sigma cat. no. S5512) and TMB substrate (Invitrogen cat. no. 00-2023). The reaction was stopped with 3M HC1, absorbance read at 450 nm on a Dynex Technologies MRX TC II plate reader and the binding curves plotted.

B1: humanized anti-CEACAM-1 variant VH3/VK2, IgG1 (antibody, V domains shown)
VH: QVQLVQSGAEVKKPGASVKVSCKASGYAFTNNLIEWVRQAPGQGLEWIGVINPGSGDTNYNEKFKGRATLTADKSINTAYMELSRLRSDDTAVYYCARGDYYGGFAVDYWGQGTTVTVSS
VL: DIQMTQSPSSLSASVGDRVTITCRTSQDIGNYLNWYQQKPGKAVKLLIYYTSRLHSGVPSRFSGSGSGTDYTLTISSLQPEDIATYFCQQGKSLPRTFGGGTKVEIK
notes: Tested as human IgG1 / kappa antibody; only the variable regions are tied to this variant
IC50: 0.85 µg/mL | IC50 normalized to CM-10: 1.36 ratio to IC50 of chimeric CM-10

B2: humanized anti-CEACAM-1 variant VH3/VK2, IgG4 (S241P) (antibody, V domains shown)
VH: B1 VH
VL: B1 VL
notes: Tested as human IgG4 (S241P) / kappa antibody; only the variable regions are tied to this variant
IC50: 0.77 µg/mL | IC50 normalized to CM-10: 1.26 ratio to IC50 of chimeric CM-10

B4: humanized anti-CEACAM-1 variant VH4/VK1, IgG4 (S241P) (antibody, V domains shown)
VH: B1 VH with N77S
VL: B1 VL with P80Q
notes: as for B2
IC50: 0.69 µg/mL | IC50 normalized to CM-10: 1.15 ratio to IC50 of chimeric CM-10

B5: humanized anti-CEACAM-1 variant VH5/VK2, IgG4 (S241P) (antibody, V domains shown)
VH: B1 VH with A68V, L70M, N77S
VL: B1 VL
notes: as for B2
IC50: 0.7 µg/mL | IC50 normalized to CM-10: 1.16 ratio to IC50 of chimeric CM-10

B6: humanized anti-CEACAM-1 variant VH2/VK3, IgG4 (S241P) (antibody, V domains shown)
VH: B1 VH with R38K, Y95F
VL: B1 VL with L73F
notes: as for B2
IC50: 0.71 µg/mL | IC50 normalized to CM-10: 1.16 ratio to IC50 of chimeric CM-10

B9: humanized anti-CEACAM-1 variant VH4/VK2, IgG4 (S241P) (antibody, V domains shown)
VH: B1 VH with N77S
VL: B1 VL
notes: as for B2
IC50: 0.69 µg/mL | IC50 normalized to CM-10: 1.17 ratio to IC50 of chimeric CM-10

B10: humanized anti-CEACAM-1 variant VH1/VK2, IgG4 (S241P) (antibody, V domains shown)
VH: B1 VH with V11L, R38K, R85S, R87T, T91S, Y95F, T115S
VL: B1 VL
notes: as for B2
IC50: 0.7 µg/mL | IC50 normalized to CM-10: 1.36 ratio to IC50 of chimeric CM-10

B11: humanized anti-CEACAM-1 variant VH3/VK3, IgG1 (antibody, V domains shown)
VH: B1 VH
VL: B1 VL with L73F
notes: as for B1
IC50: 0.86 µg/mL | IC50 normalized to CM-10: 1.37 ratio to IC50 of chimeric CM-10

B13: humanized anti-CEACAM-1 variant VH1/VK3, IgG4 (S241P) (antibody, V domains shown)
VH: B1 VH with V11L, R38K, R85S, R87T, T91S, Y95F, T115S
VL: B1 VL with L73F
notes: as for B2
IC50: 0.54 µg/mL | IC50 normalized to CM-10: 1.05 ratio to IC50 of chimeric CM-10

B15: humanized anti-CEACAM-1 variant VH5/VK3, IgG1 (antibody, V domains shown)
VH: B1 VH with A68V, L70M, N77S
VL: B1 VL with L73F
notes: as for B1
IC50: 0.74 µg/mL | IC50 normalized to CM-10: 1.12 ratio to IC50 of chimeric CM-10

B16: humanized anti-CEACAM-1 variant VH2/VK2, IgG1 (antibody, V domains shown)
VH: B1 VH with R38K, Y95F
VL: B1 VL
notes: as for B1
IC50: 0.78 µg/mL | IC50 normalized to CM-10: 1.24 ratio to IC50 of chimeric CM-10

B22: humanized anti-CEACAM-1 variant VH1/VK2, IgG1 (antibody, V domains shown)
VH: B1 VH with V11L, R38K, R85S, R87T, T91S, Y95F, T115S
VL: B1 VL
notes: as for B1
IC50: 0.7 µg/mL | IC50 normalized to CM-10: 1.32 ratio to IC50 of chimeric CM-10

B24: humanized anti-CEACAM-1 variant VH5/VK2, IgG1 (antibody, V domains shown)
VH: B1 VH with A68V, L70M, N77S
VL: B1 VL
notes: as for B1
IC50: 0.72 µg/mL | IC50 normalized to CM-10: 1.09 ratio to IC50 of chimeric CM-10

B25: humanized anti-CEACAM-1 variant VH5/VK3, IgG4 (S241P) (antibody, V domains shown)
VH: B1 VH with A68V, L70M, N77S
VL: B1 VL with L73F
notes: as for B2
IC50: 0.7 µg/mL | IC50 normalized to CM-10: 1.17 ratio to IC50 of chimeric CM-10

B27: humanized anti-CEACAM-1 variant VH2/VK1, IgG1 (antibody, V domains shown)
VH: B1 VH with R38K, Y95F
VL: B1 VL with P80Q
notes: as for B1
IC50: 0.68 µg/mL | IC50 normalized to CM-10: 1.29 ratio to IC50 of chimeric CM-10

B29: humanized anti-CEACAM-1 variant VH2/VK1, IgG4 (S241P) (antibody, V domains shown)
VH: B1 VH with R38K, Y95F
VL: B1 VL with P80Q
notes: as for B2
IC50: 0.43 µg/mL | IC50 normalized to CM-10: 0.84 ratio to IC50 of chimeric CM-10

Next, values leading:

IC50: 0.74 µg/mL | IC50 normalized to CM-10: 1.23 ratio to IC50 of chimeric CM-10
B3: humanized anti-CEACAM-1 variant VH5/VK1, IgG4 (S241P) (antibody, V domains shown)
VH: B1 VH with A68V, L70M, N77S
VL: B1 VL with P80Q
notes: as for B2

IC50: 0.73 µg/mL | IC50 normalized to CM-10: 1.23 ratio to IC50 of chimeric CM-10
B7: humanized anti-CEACAM-1 variant VH3/VK3, IgG4 (S241P) (antibody, V domains shown)
VH: B1 VH
VL: B1 VL with L73F
notes: as for B2

IC50: 0.76 µg/mL | IC50 normalized to CM-10: 1.26 ratio to IC50 of chimeric CM-10
B8: humanized anti-CEACAM-1 variant VH2/VK2, IgG4 (S241P) (antibody, V domains shown)
VH: B1 VH with R38K, Y95F
VL: B1 VL
notes: as for B2

IC50: 0.73 µg/mL | IC50 normalized to CM-10: 1.15 ratio to IC50 of chimeric CM-10
B12: humanized anti-CEACAM-1 variant VH4/VK1, IgG1 (antibody, V domains shown)
VH: B1 VH with N77S
VL: B1 VL with P80Q
notes: as for B1

IC50: 0.63 µg/mL | IC50 normalized to CM-10: 1.06 ratio to IC50 of chimeric CM-10
B14: humanized anti-CEACAM-1 variant VH4/VK3, IgG4 (S241P) (antibody, V domains shown)
VH: B1 VH with N77S
VL: B1 VL with L73F
notes: as for B2

IC50: 0.78 µg/mL | IC50 normalized to CM-10: 1.46 ratio to IC50 of chimeric CM-10
B17: humanized anti-CEACAM-1 variant VH1/VK1, IgG1 (antibody, V domains shown)
VH: B1 VH with V11L, R38K, R85S, R87T, T91S, Y95F, T115S
VL: B1 VL with P80Q
notes: as for B1

IC50: 0.77 µg/mL | IC50 normalized to CM-10: 1.17 ratio to IC50 of chimeric CM-10
B18: humanized anti-CEACAM-1 variant VH5/VK1, IgG1 (antibody, V domains shown)
VH: B1 VH with A68V, L70M, N77S
VL: B1 VL with P80Q
notes: as for B1

IC50: 0.78 µg/mL | IC50 normalized to CM-10: 1.24 ratio to IC50 of chimeric CM-10
B19: humanized anti-CEACAM-1 variant VH4/VK2, IgG1 (antibody, V domains shown)
VH: B1 VH with N77S
VL: B1 VL
notes: as for B1

IC50: 0.77 µg/mL | IC50 normalized to CM-10: 1.44 ratio to IC50 of chimeric CM-10
B20: humanized anti-CEACAM-1 variant VH1/VK3, IgG1 (antibody, V domains shown)
VH: B1 VH with V11L, R38K, R85S, R87T, T91S, Y95F, T115S
VL: B1 VL with L73F
notes: as for B1

IC50: 0.78 µg/mL | IC50 normalized to CM-10: 1.52 ratio to IC50 of chimeric CM-10
B21: humanized anti-CEACAM-1 variant VH1/VK1, IgG4 (S241P) (antibody, V domains shown)
VH: B1 VH with V11L, R38K, R85S, R87T, T91S, Y95F, T115S
VL: B1 VL with P80Q
notes: as for B2

IC50: 0.76 µg/mL | IC50 normalized to CM-10: 1.21 ratio to IC50 of chimeric CM-10
B23: humanized anti-CEACAM-1 variant VH2/VK3, IgG1 (antibody, V domains shown)
VH: B1 VH with R38K, Y95F
VL: B1 VL with L73F
notes: as for B1

IC50: 0.69 µg/mL | IC50 normalized to CM-10: 1.1 ratio to IC50 of chimeric CM-10
B26: humanized anti-CEACAM-1 variant VH3/VK1, IgG1 (antibody, V domains shown)
VH: B1 VH
VL: B1 VL with P80Q
notes: as for B1

IC50: 0.71 µg/mL | IC50 normalized to CM-10: 1.16 ratio to IC50 of chimeric CM-10
B28: humanized anti-CEACAM-1 variant VH3/VK1, IgG4 (S241P) (antibody, V domains shown)
VH: B1 VH
VL: B1 VL with P80Q
notes: as for B2

IC50: 0.99 µg/mL | IC50 normalized to CM-10: 1.56 ratio to IC50 of chimeric CM-10
B30: humanized anti-CEACAM-1 variant VH4/VK3, IgG1 (antibody, V domains shown)
VH: B1 VH with N77S
VL: B1 VL with L73F
notes: as for B1

— US20240092934A1 (FAMEWAVE, published 2024)
